Literature values in article PMC7022251.

Molecular target: Beclin-1 BH3 (UniProt Q14457)
Sequence of UniProt Q14457 (Q14457 105-130): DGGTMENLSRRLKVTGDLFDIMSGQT

In the case of M11 (from UniProt P89884), the Kd is listed as 0.04 µM.
